Reference: the supplement of paper PMC5998384

Columns and labels:
[1] = tested on: HeLa Kyoto; experiment: solubility change mitosis vs G1/S (difference of NP-40 vs SDS log2 ratios) (log2 ratio difference); higher = more soluble in mitosis
[2] = tested on: HeLa Kyoto; experiment: thermal stability score vs G1/S (z-score of summed log2 fold changes over temperatures); higher = more thermally stable than in G1/S
[3] = tested on: HeLa Kyoto; experiment: solubility in G1/S (NP-40 vs SDS abundance) (log2 ratio); higher = more soluble; conditions: cell cycle stage: G1/S
[4] = tested on: HeLa Kyoto; experiment: melting temperature (median over replicates), in situ; higher = more thermally stable
[5] = cell cycle stage: early G1 (4.5 h after nocodazole release)
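For melting temperature (median over replicates), in situ in this document: HeLa Kyoto cells synchronized by double thymidine or nocodazole block, proteins quantified by TMT10plex mass spectrometry, three independent biological replicates.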
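For solubility change mitosis vs G1/S (difference of NP-40 vs SDS log2 ratios) in this document: synchronized HeLa Kyoto cells (double thymidine block for G1/S, nocodazole release for mitosis), protein amounts in NP-40 versus SDS lysates quantified by mass spectrometry, three biological replicates.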
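For solubility in G1/S (NP-40 vs SDS abundance) in this document: HeLa Kyoto cells arrested at G1/S by double thymidine block, proteins quantified by TMT10plex mass spectrometry in mild NP-40 versus SDS extracts, three biological replicates.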
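For thermal stability score vs G1/S (z-score of summed log2 fold changes over temperatures) in this document: synchronized HeLa Kyoto cells, proteins quantified by TMT10plex mass spectrometry, three biological replicates, mitosis taken 0.5 h after nocodazole release, G1/S directly after double thymidine block.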

With “MADGEEPEKKRRRIEELLAEKMAVDGGCGDTGDWEGRWNHVKKFLERSGPFTHPDFEPSTESLQFLLDTCKVLVIGAGGLGCELLKNLALSGFRQIHVIDMDTIDVSNLNRQFLFRPKDIGRPKAEVAAEFLNDRVPNCNVVPHFNKIQDFNDTFYRQFHIIVCGLDSIIARRWINGMLISLLNYEDGVLDPSSIVPLIDGGTEGFKGNARVILPGMTACIECTLELYPPQVNFPMCTIASMPRLPEHCIEYVRMLQWPKEQPFGEGVPLDGDDPEHIQWIFQKSLERASQYNIRGVTYRLTQGVVKRIIPAVASTNAVIAAVCATEVFKIATSAYIPLNNYLVFNDVDGLYTYTFEAERKENCPACSQLPQNIQFSPSAKLQEVLDYLTNSASLQMKSPAITATLEGKNRTLYLQSVTSIEERTRPNLSKTLKELGLVDGQELAVADVTTPQTVLFKLHFTS [UBA3]” the “solubility change mitosis (log2)” value [1] was -0.178, the thermal stability score [2, 5] was 1.23 and the thermal stability score ([2]; cell cycle stage: mitosis) was 1.76. For the same sequence, the “solubility in G1/S (log2)” value [3] was 0.115, the melting temperature ([4]; cell cycle stage: G1/S) was 51.8 °C and the melting temperature ([4]; cell cycle stage: mitosis) was 51.5 °C.
In the case of “MADGKAGDEKPEKSQRAGAAGGPEEEAEKPVKTKTVSSSNGGESSSRSAEKRSAEEEAADLPTKPTKISKFGFAIGSQTTKKASAISIKLGSSKPKETVPTLAPKTLSVAAAFNEDEDSEPEEMPPEAKMRMKNIGRDTPTSAGPNSFNKGKHGFSDNQKLWERNIKSHLGNVHDQDN [PCNP]”, the “solubility change mitosis (log2)” value [1] was 0.0732, the thermal stability score [2, 5] was -1.76 and the thermal stability score ([2]; cell cycle stage: mitosis) was -6.06. The “solubility in G1/S (log2)” value [3] was 0.559, the melting temperature ([4]; cell cycle stage: G1/S) was 59.4 °C and the melting temperature ([4]; cell cycle stage: mitosis) was 53.8 °C.
With “MADGPRCKRRKQANPRRNNVTNYNTVVETNSDSDDEDKLHIVEEESVTDAADCEGVPEDDLPTDQTVLPGRSSEREGNAKNCWEDDRKEGQEILGPEAQADEAGCTVKDDECESDAENEQNHDPNVEEFLQQQDTAVIFPEAPEEDQRQGTPEASGHDENGTPDAFSQLLTCPYCDRGYKRFTSLKEHIKYRHEKNEDNFSCSLCSYTFAYRTQLERHMTSHKSGRDQRHVTQSGCNRKFKCTECGKAFKYKHHLKEHLRIHSGEKPYECPNCKKRFSHSGSYSSHISSKKCISLIPVNGRPRTGLKTSQCSSPSLSASPGSPTRPQIRQKIENKPLQEQLSVNQIKTEPVDYEFKPIVVASGINCSTPLQNGVFTGGGPLQATSSPQGMVQAVVLPTVGLVSPISINLSDIQNVLKVAVDGNVIRQVLENNQANLASKEQETINASPIQQGGHSVISAISLPLVDQDGTTKIIINYSLEQPSQLQVVPQNLKKENPVATNSCKSEKLPEDLTVKSEKDKSFEGGVNDSTCLLCDDCPGDINALPELKHYDLKQPTQPPPLPAAEAEKPESSVSSATGDGNLSPSQPPLKNLLSLLKAYYALNAQPSAEELSKIADSVNLPLDVVKKWFEKMQAGQISVQSSEPSSPEPGKVNIPAKNNDQPQSANANEPQDSTVNLQSPLKMTNSPVLPVGSTTNGSRSSTPSPSPLNLSSSRNTQGYLYTAEGAQEEPQVEPLDLSLPKQQGELLERSTITSVYQNSVYSVQEEPLNLSCAKKEPQKDSCVTDSEPVVNVIPPSANPINIAIPTVTAQLPTIVAIADQNSVPCLRALAANKQTILIPQVAYTYSTTVSPAVQEPPLKVIQPNGNQDERQDTSSEGVSNVEDQNDSDSTPPKKKMRKTENGMYACDLCDKIFQKSSSLLRHKYEHTGKRPHECGICKKAFKHKHHLIEHMRLHSGEKPYQCDKCGKRFSHSGSYSQHMNHRYSYCKREAEERDSTEQEEAGPEILSNEHVGARASPSQGDSDERESLTREEDEDSEKEEEEEDKEMEELQEEKECEKPQGDEEEEEEEEEVEEEEVEEAENEGEEAKTEGLMKDDRAESQASSLGQKVGESSEQVSEEKTNEA [ZEB1]” the “solubility change mitosis (log2)” value [1] was -0.0271, the thermal stability score [2, 5] was -0.796 and the thermal stability score ([2]; cell cycle stage: mitosis) was 2.75. The “solubility in G1/S (log2)” value [3] was -0.154, the melting temperature ([4]; cell cycle stage: G1/S) was 52.8 °C and the melting temperature ([4]; cell cycle stage: mitosis) was 53.9 °C.
In the case of “MADGSLTGGGLEAAAMAPERMGWAVEQELASLEKGLFQDEDSCSDCSYRDKPGSSLQSFMPEGKTFFPEIFQTNQLLFYERFRAYQDYILADCKASEVQEFTAEFLEKVLEPSGWRAVWHTNVFKVLVEITDVDFAALKAVVRLAEPYLCDSQVSTFTMECMKELLDLKEHRLPLQELWVVFDDSGVFDQTALAIEHVRFFYQNIWRSWDEEEEDEYDYFVRCVEPRLRLHYDILEDRVPSGLIVDYHNLLSQCEESYRKFLNLRSSLSNCNSDSEQENISMVEGLKLYSEMEQLKQKLKLIENPLLRYVFGYQKNSNIQAKGVRSSGQKITHVVSSTMMAGLLRSLLTDRLCQEPGEEEREIQFHSDPLSAINACFEGDTVIVCPGHYVVHGTFSIADSIELEGYGLPDDIVIEKRGKGDTFVDCTGADIKISGIKFVQHDAVEGILIVHRGKTTLENCVLQCETTGVTVRTSAEFLMKNSDLYGAKGAGIEIYPGSQCTLSDNGIHHCKEGILIKDFLDEHYDIPKISMVNNIIHNNEGYGVVLVKPTIFSDLQENAEDGTEENKALKIQTSGEPDVAERVDLEELIECATGKMELCARTDPSEQVEGNCEIVNELIAASTQKGQIKKKRLSELGITQADDNLMSQEMFVGIVGNQFKWNGKGSFGTFLF [SHCBP1]”, the “solubility change mitosis (log2)” value [1] was -0.188, the thermal stability score [2, 5] was 0.216 and the thermal stability score ([2]; cell cycle stage: mitosis) was 1.36. The “solubility in G1/S (log2)” value [3] was -0.00275, the melting temperature ([4]; cell cycle stage: G1/S) was 49 °C and the melting temperature ([4]; cell cycle stage: mitosis) was 50.4 °C.
In the case of “MADGVDHIDIYADVGEEFNQEAEYGGHDQIDLYDDVISPSANNGDAPEDRDYMDTLPPTVGDDVGKGAAPNVVYTYTGKRIALYIGNLTWWTTDEDLTEAVHSLGVNDILEIKFFENRANGQSKGFALVGVGSEASSKKLMDLLPKRELHGQNPVVTPCNKQFLSQFEMQSRKTTQSGQMSGEGKAGPPGGSSRAAFPQGGRGRGRFPGAVPGGDRFPGPAGPGGPPPPFPAGQTPPRPPLGPPGPPGPPGPPPPGQVLPPPLAGPPNRGDRPPPPVLFPGQPFGQPPLGPLPPGPPPPVPGYGPPPGPPPPQQGPPPPPGPFPPRPPGPLGPPLTLAPPPHLPGPPPGAPPPAPHVNPAFFPPPTNSGMPTSDSRGPPPTDPYGRPPPYDRGDYGPPGREMDTARTPLSEAEFEEIMNRNRAISSSAISRAVSDASAGDYGSAIETLVTAISLIKQSKVSADDRCKVLISSLQDCLHGIESKSYGSGSRRERSRERDHSRSREKSRRHKSRSRDRHDDYYRERSRERERHRDRDRDRDRERDREREYRHR [CPSF6]”, the “solubility change mitosis (log2)” value [1] was 0.0573, the thermal stability score [2, 5] was -1.57 and the thermal stability score ([2]; cell cycle stage: mitosis) was -2.72. The “solubility in G1/S (log2)” value [3] was -0.195, the melting temperature ([4]; cell cycle stage: G1/S) was 53 °C and the melting temperature ([4]; cell cycle stage: mitosis) was 53.2 °C.
“MADHSFSDGVPSDSVEAAKNASNTEKLTDQVMQNPRVLAALQERLDNVPHTPSSYIETLPKAVKRRINALKQLQVRCAHIEAKFYEEVHDLERKYAALYQPLFDKRREFITGDVEPTDAESEWHSENEEEEKLAGDMKSKVVVTEKAAATAEEPDPKGIPEFWFTIFRNVDMLSELVQEYDEPILKHLQDIKVKFSDPGQPMSFVLEFHFEPNDYFTNSVLTKTYKMKSEPDKADPFSFEGPEIVDCDGCTIDWKKGKNVTVKTIKKKQKHKGRGTVRTITKQVPNESFFNFFNPLKASGDGESLDEDSEFTLASDFEIGHFFRERIVPRAVLYFTGEAIEDDDNFEEGEEGEEEELEGDEEGEDEDDAEINPKV [NAP1L4]” was tested, and the “solubility change mitosis (log2)” value [1] was -0.0294, the thermal stability score [2, 5] was 1.4 and the thermal stability score ([2]; cell cycle stage: mitosis) was 0.831. For the same sequence, the “solubility in G1/S (log2)” value [3] was 0.455, the melting temperature ([4]; cell cycle stage: G1/S) was 51.4 °C and the melting temperature ([4]; cell cycle stage: mitosis) was 51.7 °C.
With “MADIDNKEQSELDQDLDDVEEVEEEETGEETKLKARQLTVQMMQNPQILAALQERLDGLVETPTGYIESLPRVVKRRVNALKNLQVKCAQIEAKFYEEVHDLERKYAVLYQPLFDKRFEIINAIYEPTEEECEWKPDEEDEISEELKEKAKIEDEKKDEEKEDPKGIPEFWLTVFKNVDLLSDMVQEHDEPILKHLKDIKVKFSDAGQPMSFVLEFHFEPNEYFTNEVLTKTYRMRSEPDDSDPFSFDGPEIMGCTGCQIDWKKGKNVTLKTIKKKQKHKGRGTVRTVTKTVSNDSFFNFFAPPEVPESGDLDDDAEAILAADFEIGHFLRERIIPRSVLYFTGEAIEDDDDDYDEEGEEADEEGEEEGDEENDPDYDPKKDQNPAECKQQ [NAP1L1]” the “solubility change mitosis (log2)” value [1] was -0.0741, the thermal stability score [2, 5] was 2.07 and the thermal stability score ([2]; cell cycle stage: mitosis) was 2.03. For the same sequence, the “solubility in G1/S (log2)” value [3] was 0.329, the melting temperature ([4]; cell cycle stage: G1/S) was 49.7 °C and the melting temperature ([4]; cell cycle stage: mitosis) was 50.9 °C.
With “MADKEAGGSDGPRETAPTSAYSSPARSLGDTGITPLSPSHIVNDTDSNVSEQQSFLVVVAVDFGTTSSGYAYSFTKEPECIHVMRRWEGGDPGVSNQKTPTTILLTPERKFHSFGYAARDFYHDLDPNEAKQWLYLEKFKMKLHTTGDLTMDTDLTAANGKKVKALEIFAYALQYFKEQALKELSDQAGSEFENSDVRWVITVPAIWKQPAKQFMRQAAYQAGLASPENSEQLIIALEPEAASIYCRKLRLHQMIELSSKAAVNGYSGSDTVGAGFTQAKEHIRRNRQSRTFLVENVIGEIWSELEEGDKYVVVDSGGGTVDLTVHQIRLPEGHLKELYKATGGPYGSLGVDYEFEKLLYKIFGEDFIEQFKIKRPAAWVDLMIAFESRKRAAAPDRTNPLNITLPFSFIDYYKKFRGHSVEHALRKSNVDFVKWSSQGMLRMSPDAMNALFKPTIDSIIEHLRDLFQKPEVSTVKFLFLVGGFAEAPLLQQAVQAAFGDQCRIIIPQDVGLTILKGAVLFGLDPAVIKVRRSPLTYGVGVLNRYVEGKHPPEKLLVKDGTRWCTDVFDKFISADQSVALGELVKRSYTPAKPSQLVIVINIYSSEHDNVSFITDPGVKKCGTLRLDLTGTSGTAVPARREIQTLMQFGDTEIKATAIDIATSKSVKVGIDFLNY [HSPA12A]” the “solubility change mitosis (log2)” value [1] was -0.113, the thermal stability score [2, 5] was 0.628 and the thermal stability score ([2]; cell cycle stage: mitosis) was 1. The “solubility in G1/S (log2)” value [3] was -0.123, the melting temperature ([4]; cell cycle stage: G1/S) was 52.1 °C and the melting temperature ([4]; cell cycle stage: mitosis) was 52.7 °C.
In the case of “MADKVRRQRPRRRVCWALVAVLLADLLALSDTLAVMSVDLGSESMKVAIVKPGVPMEIVLNKESRRKTPVIVTLKENERFFGDSAASMAIKNPKATLRYFQHLLGKQADNPHVALYQARFPEHELTFDPQRQTVHFQISSQLQFSPEEVLGMVLNYSRSLAEDFAEQPIKDAVITVPVFFNQAERRAVLQAARMAGLKVLQLINDNTATALSYGVFRRKDINTTAQNIMFYDMGSGSTVCTIVTYQMVKTKEAGMQPQLQIRGVGFDRTLGGLEMELRLRERLAGLFNEQRKGQRAKDVRENPRAMAKLLREANRLKTVLSANADHMAQIEGLMDDVDFKAKVTRVEFEELCADLFERVPGPVQQALQSAEMSLDEIEQVILVGGATRVPRVQEVLLKAVGKEELGKNINADEAAAMGAVYQAAALSKAFKVKPFVVRDAVVYPILVEFTREVEEEPGIHSLKHNKRVLFSRMGPYPQRKVITFNRYSHDFNFHINYGDLGFLGPEDLRVFGSQNLTTVKLKGVGDSFKKYPDYESKGIKAHFNLDESGVLSLDRVESVFETLVEDSAEEESTLTKLGNTISSLFGGGTTPDAKENGTDTVQEEEESPAEGSKDEPGEQVELKEEAEAPVEDGSQPPPPEPKGDATPEGEKATEKENGDKSEAQKPSEKAEAGPEGVAPAPEGEKKQKPARKRRMVEEIGVELVVLDLPDLPEDKLAQSVQKLQDLTLRDLEKQEREKAANSLEAFIFETQDKLYQPEYQEVSTEEQREEISGKLSAASTWLEDEGVGATTVMLKEKLAELRKLCQGLFFRVEERKKWPERLSALDNLLNHSSMFLKGARLIPEMDQIFTEVEMTTLEKVINETWAWKNATLAEQAKLPATEKPVLLSKDIEAKMMALDREVQYLLNKAKFTKPRPRPKDKNGTRAEPPLNASASDQGEKVIPPAGQTEDAEPISEPEKVETGSEPGDTEPLELGGPGAEPEQKEQSTGQKRPLKNDEL [HYOU1]”, the “solubility change mitosis (log2)” value [1] was -0.0667, the thermal stability score [2, 5] was 3.86 and the thermal stability score ([2]; cell cycle stage: mitosis) was 5.24. The “solubility in G1/S (log2)” value [3] was 0.402, the melting temperature ([4]; cell cycle stage: G1/S) was 54.1 °C and the melting temperature ([4]; cell cycle stage: mitosis) was 54.4 °C.
